Entries after “also recorded” stand apart in the source; their conditions may differ. Where two headings read alike, the source gives them in different places.
B1: vMIP-II: virally-encoded chemokine from the human Kaposi's sarcoma herpesvirus HHV8 (protein)
chain: LGASWHRPDKCCLGYQKRPLPQVLLSSWYPTSQLCSKPGVIFLTKRGRQVCADKSKDWVKKLMQQLPVTAR
B2: murine CTACK: murine chemokine CTACK, also referred to as CCL27, ALP, ILC, and ESkine (protein)
chain: LPLPSSTSCCTQLYRQPLPSRLLRRIVHMELQEADGDCHLQAVVLHLARRSVCVHPQNRSLARWLERQGKRLQGTVPSLNLVLQKKMYSHPQQQN
B3: TECK: thymus expressed chemokine, recombinant (protein)
chain: QGVFEDCCLAYHYPIGWAVLRRAWTYRIQEVSGSCNLPAAIFYLPKRHRKVCGNPKSREVQRAMKLLDARNKVFAKLHHNTQTFQAGPHAVKKLSSGNSKLSSSKFSNPISSSKRNVSLLISANSGL
B4: mMIP-1gamma: murine chemokine MIP-1γ (protein)
chain: QITHATETKEVQSSLKAQQGLEIEMFHMGFQDSSDCCLSYNSRIQCSRFIGYFPTSGGCTRPGIIFISKRGFQVCANPSDRRVQRCIERLEQNSQPRTYKQ

Experiments:
[1] = target: T1, CCX CKR (Homo sapiens, UniProt Q9NPB9); experiment: Small molecule screen: inhibition of 125I-ELC binding to HEK293 cells stably expressing CCX CKR; conditions: for effect on binding between ELC and CCX CKR: 125I-ELC ~25–100 pM, compounds 1–5 μg/mL, HEK293-CCX CKR cells, 3 hours at 4° C.; for type of modulator of CCX CKR function: Table 1, exemplary small molecule modulators of CCX CKR binding to ELC
T1 construct: Full length CCX CKR expression constructs were made in pIRESpuro expression vector; expressed in transfected cells
T1 sequence (Q9NPB9 1-350): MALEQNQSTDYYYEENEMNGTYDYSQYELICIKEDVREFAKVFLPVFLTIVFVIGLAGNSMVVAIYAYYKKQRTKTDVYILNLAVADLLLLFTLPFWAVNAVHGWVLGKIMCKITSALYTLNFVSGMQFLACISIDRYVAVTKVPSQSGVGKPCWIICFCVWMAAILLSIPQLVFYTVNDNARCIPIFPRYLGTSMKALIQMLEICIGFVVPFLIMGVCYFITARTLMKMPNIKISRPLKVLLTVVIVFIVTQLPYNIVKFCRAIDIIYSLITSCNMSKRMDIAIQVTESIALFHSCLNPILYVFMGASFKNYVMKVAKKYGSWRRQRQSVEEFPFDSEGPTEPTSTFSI
Method: Source plates of chemical libraries were obtained from commercial vendors and contained individual compounds at 5 mg/mL in DMSO, or in some instances, at 1 mg/mL. From these, multiple compound plates containing 10 compounds in each well were made, and these were diluted in 20% DMSO to a concentration of 50 μg/mL (10 μg/mL for those beginning at 1 mg/mL). An aliquot of 20 μL of each mixture was put into the test plates, which were stored frozen until use.
HEK293 cells stably expressing the M1 flag epitope-tagged CCX CKR (described in Example 3, supra) were cultured in DMEM-10% FBS, and harvested when the concentration was between 0.5–1.0×10^6 cells/mL. The cells were centrifuged and resuspended in assay buffer (20 mM HEPES, 80 mM NaCl, 1 mM CaCl2, 5 mM MgCl2, and with 0.2% bovine serum albumin, pH 7.4) to a concentration of 5.6×10^6 cells/mL.
Using a Multi-Probe automated system, 0.09 mL of cells was added to each well of the assay test plates containing the compounds, followed by 0.09 mL of ^125I-MIPβ3/ELC (from Amersham Pharmacia Biotech) diluted in assay buffer (final concentration ˜25–100 pM, with ˜50,000 cpm per well). The final concentration of the compounds was 1–5 μg/mL each. The plates were sealed and incubated for approximately 3 hours at 4° C. on a shaker platform. The assay plates were harvested using Packard GP/B filter plates, pre-soaked in PEI solution, on the vacuum harvest apparatus. Scintillation fluid (50 μL) was added to each of the wells, the plates were sealed and counted in a Top Count scintillation counter. Control wells contained either diluent only (for total counts) or excess ELC (1 μg/mL, for non-specific binding) and were used to calculate the percent of total inhibition of ELC binding for each set of compounds.

[2] = target: T1, CCX CKR; experiment: Radioligand binding competition (DisplaceMax) to CCX CKR stable transfectants with Scatchard transformation
Source text: In one embodiment, binding is detected as described by Dairaghi et al., 1997, J. Biol. Chem. 272:28206–209 (incorporated by reference in its entirety for all purposes) substituting CCX CKR transfectants for the CCR3 transfectants). In one embodiment, binding is detected using the filter based technique described by Dairaghi et al., 1999, J. Biol. Chem. 274:2156 (incorporated by reference in its entirety for all purposes), e.g., as shown in FIG. 4. Briefly, this technology employs expanded, efficiency-maximized radioligand binding utilizing filtration protocols. In these assays, 1×10^5 CCXCKR-293 HEK cells are incubated with ^125I-labeled ELC (MIP3beta) (final concentration of ˜0.05 nM) in the presence of unlabeled chemokine for 3 h at 4° C. in 25 mM HEPES, 140 mM NaCl, 1 mM CaCl2, 5 mM MgCl2, and 0.2% bovine serum albumin, adjusted to pH 7.1. Reactions were aspirated onto PEI-treated GF/B glass filters using a cell harvester (Packard). Filters are washed twice (25 mM HEPES, 500 mM NaCl, 1 mM CaCl2 5 mM MgCl2, adjusted to pH 7.1) and scintillant (e.g., MicroScint 20; 50 μl) is added to dried filters and counted (e.g., using a Packard Topcount scintillation counter). The competition dose-response curves is analyzed by standard methods to determine IC50 values (e.g., using GraphPad Prism software (San Diego, Calif.)). Additionally, a Scatchard transformation can be used to estimate the receptor sites per cell (e.g., using WaveMetrics Igor software (Lake Oswego, Oreg.)).
(§1) Binding analysis was carried out using efficiency-maximized radioligand binding utilizing filtration protocols designated “Displace Max” (Dairaghi et al., 1999, J. Biol. Chem. 274:21569). In these assays, DisplaceMax employed the simultaneous interrogation of CCX CKR transfectants by >80 distinct purified chemokines in the ability to displace radiolabeled ELC or TECK, using the protocol described (Dairaghi et al., 1999, J. Biol. Chem. 274:21569).
The binding interactions identified in the primary screen were examined quantitatively by extensive radioligand binding competition to CCX CKR stable transfectants and Scatchard transformation of the displacement data (FIG. 4B). […] In each case, the murine versions of these chemokines also bound, and with even greater affinity; the apparent Kd's are listed in FIG. 4B. […] In similar experiments, murine CTACK bound the receptor with a Kd of ˜9 nM (not shown). CTACK is also referred to as CCL27, ALP, ILC, and ESkine.

[3] = target: T1, CCX CKR; experiment: Ligand binding fingerprint: cold chemokines competing against 125I-ELC on CCX CKR stable transfectants; conditions: cold competitor at 200 nM; human and murine chemokines
Source text: In order to rapidly and thoroughly define a given chemokine receptor's ligand binding fingerprint, we have established an approach to comprehensively profile chemokine receptors using a large array of purified chemokines and chemokine variants. We used this approach to confirm independently the interaction of ELC and other chemokines with CCX CKR. Employing radioligand binding of ^125-labeled-ELC or ^125-TECK to CCX CKR stable transfectants, chemokine specificity for the new receptor was determined.
as §1

[4] = target: T1, CCX CKR; experiment: Ligand induced internalization of Flag-CCX CKR in 293 cells (FACS); format: cell-based; conditions: 100 nM chemokine, 37° C., 15 or 45 minutes, 293 F-CCR10 cells
Method: 293 cells transfected with the Flag-CCX CKR fusion plasmid (i.e., “293 F-CCR10 cells;” see Example 3) were incubated at 37° C. with varying concentrations of chemokines (ELC, SLC, TECK, murine CTACK and MCP-4) for 15 or 45 minutes. Following incubation, the cells were washed and fixed with 3% paraformaldehyde for 15 minutes on ice. The cells were stained with anti-Flag M1 antibody, followed by a PE-conjugated anti-mouse secondary antibody. FACS analysis were then carried out to determine surface expression of the receptor.
Results: A reduction in antibody binding in the presence of ligand is an indication of ligand-induced internalization of the receptor.

[5] = target: T1, CCX CKR; experiment: Adhesion of HEK293-CCX CKR cells to immobilized stalkokines and competition by soluble chemokines; format: cell-based; conditions: soluble recombinant chemokine 5–10 ug/ml
Source text: “Stalkokine” technology was used to identify the chemokines bound by the CCX CKR. Briefly, immobilized native chemokines alone are incapable of capturing cells bearing cognate receptors (Imai et al., 1997, Cell 91:521). We have developed non-native chemokine structures, stalkokines, comprising chemokine moieties engineered as N-terminal attachments to extended modified mucins (Bazan et al., 1997, Nature 385:640). In one embodiment, stalkokines, harvested in the supernatants of HEK293 cells after transient transfection, are anchored to solid substrates via antibodies against carrier domains (e.g. poly-His epitopes) engineered to the carboxyl terminus, leaving the chemokine domain free to interact with candidate orphan receptors.
To determine ligand binding to CCX CKR, HEK293-CCX CKR cells were used to interrogate chemokine ‘stalkokines’ (SK), i.e., molecules in which discrete chemokine domains were engineered to be tethered to the end of an extended stalk structure. Stalkokines were interrogated using 8-well chamber slides coated first with anti-His anchoring antibody (10 ug/ml in PBS overnight at RT), which were washed and ‘blocked’ (2% FBS/0.5% BSA in PBS); treated with 250 ul of HEK293 cell stalkokine supernatants (1 hr at 37 C), and incubated with 500,000 HEK293-CCX CKR transfectants (1.5 hrs at RT). Inhibition of adhesion by competition with soluble chemokines was done by incubating cells with 5–10 ug/ml of recombinant chemokines. In all cases, nonadherent cells were removed by washing in PBS; remaining adherent cells were fixed with 1% glutaraldehyde, photoimaged and counted. As a primary screen this adhesion would reveal putative receptor-ligand interactions.

[6] = target: T1, CCX CKR; experiment: Homologous competition binding assay with radiolabeled chemokine on HEK293-CCX CKR cells; conditions: HEK293-CCX CKR cells versus wildtype HEK293 cells
Source text: Furthermore ELC-SK mediated adhesion was abolished in the presence of soluble native ELC as a competitor (FIG. 3A, top row). […] Moreover, radiolabeled ELC was used in a traditional homologous competition assay in the presence of increasing concentrations of unlabeled ELC. […] Taken together, the stalkokine-based adhesion and radiolabeled ligand binding/homologous competition assays indicate that CCX CKR is a new chemokine receptor that bound a novel compliment of chemokines.

Molecule | effect on binding between ELC and CCX CKR [1] | type of modulator of CCX CKR function [1] | affinity of binding to CCX CKR, in words [2] | competition with 125I-labeled ELC binding to CCX CKR (fingerprint) [3] | internalization of CCX CKR [4] | also measured
CC1CCCCN1CCCN(Cc1ccc(OCc2ccccc2)cc1)C(=O)Nc1ccc(Cl)c(Cl)c1 (stereo not shown) [Compound I] | inhibit binding | Compound I(antagonist) |  |  |  | 
BLC: the CXC chemokine BLC |  |  | lower affinity; also recorded: of lesser affinity, also bound well | potential lower affinity |  | 
CCC(c1nc2ccccc2c(=O)n1C)N(Cc1ccco1)C(=O)Nc1cccc(C(F)(F)F)c1 (stereo not shown) [Compound III] | enhance binding | Compound III(agonist) |  |  |  | 
CC1CCCCN1CCCN(Cc1ccc(OCc2ccccc2)cc1)C(=O)NCC1CCC2CCCC(C2)C1 (stereo not shown) [Compound II] | inhibit binding | Compound II(antagonist) |  |  |  | 
MCP-4: chemokine, did not cause receptor internalization |  |  |  |  | did not cause internalization | 
MCP-3: chemokine, representative of many non-competing chemokines |  |  |  |  |  | effect of soluble chemokine on ELC-SK mediated adhesion of HEK293-CCX CKR cells [5]: no diminution in adhesion
B1 |  |  | moderate to low affinity | potential lower affinity |  | affinity of binding to CCX CKR, in words ([2]; listed as vMIPII): lower affinity
B2 |  |  | high affinity |  | Internalization of the receptor was observed | 
B3 |  |  | high affinity | bound well | Internalization of the receptor was observed | effect of soluble chemokine on ELC-SK mediated adhesion of HEK293-CCX CKR cells [5]: significant reduction; also recorded: ablation of adhesion; binding in homologous competition of radiolabeled with unlabeled chemokine [6]: Nearly identical results
B4 |  |  | lower affinity | moderately |  | 

From patent US7108990B2, “Chemokine receptor” (ChemoCentryx, Inc., priority 1999, dated 2006)
